# B1: Bacillus anthracis kynurenine formamidase KynB (enzyme)
# chain: MKTSKWIDISQPLNNDIATWPGDTPFSYEVLWSKEESGSVNVGKLTMSIHTGTHIDAPFHFDNDGKKVLDLDIQVYVGPTRIIDVSNLESIGKKELEKFHLEGVERLLLRTSSHGKANEFPDIIPHLRADIAPFLSEKGIRLIGVDVPSVDPLDDKELAAHHQLFKHSIHILENVVLDHVADGDYELIALPLALSDADGSPVRAVIRPI
# notes: also called BaKynB; KFase
# Target: the molecule itself
# Experiment: SEC
protein,measurement,value
B1,stoichiometry N,2
